The text below walks through data of patent US20240209061A1, “FUSION PROTEINS AND USES THEREOF” (Pfizer Inc., priority 2020, published 2024).

For data set [1], the system named is Renca murine renal carcinoma tumor cells. Briefly: Renca murine renal carcinoma model. Format: in vivo, mouse. The note with it: for % tumor growth inhibition: Day 18; for # IFNγ-producing spots (splenic tumor-reactive T cells): spleen Day 9, average of n = 4 mice; for CD8^+ T cell infiltrates (% CD45): Renca, ~1 week after first dose, n=4. How it is done: Renca murine renal carcinoma tumor cells (1 million) were subcutaneously implanted in the hind flank of female Balb/c mice. Five days after tumor implantation, PBS vehicle control or variant CD80-Fc fusion proteins were dosed intravenously at 0.3 and 1 mg/kg (on Day 0 and Day 3) or 3 mg/kg (Day 0, Day 3 and Day 6). Tumor volume was determined by caliper measurements obtained in 2 dimensions and calculated as width^2×length/2. Error bars are depicted as ±SEM.
Pharmacodynamic (PD) modulation with variant CD80-Fc fusion proteins was assessed by measuring tumor-reactive T cells in the spleen using IFNγ ELIspot. Single-cell suspensions were generated from dissociated spleens taken at Day 9 after the first dose of CD80-Fc. Splenocytes were incubated with irradiated tumor cells overnight at 37° C., and the number of IFNγ-producing spots were measured using the IFNγ ELIspot Kit (BD Biosciences #551083).
Cytotoxic CD8^+ T cells are responsible for killing cancer cells and the measurement of CD8^+ T cells that have infiltrated tumors commonly correlates with efficacy for immune-oncology therapies. For all in vivo studies, tumors were collected ˜1 week after the first dose and dissociated by mincing, followed by incubation in an enzymatic digestion cocktail and homogenization. The resulting cell suspension was filtered and washed, and single cells were stained with antibodies to CD45, CD8, and a viability dye to detect tumor-infiltrating lymphocytes (TILs) by flow cytometry. Data were acquired on a BD LSRFortessa flow cytometer or a Cytek Aurora spectral flow cytometer. Table 31 and FIG. 18 show the amount of tumor-infiltrating CD8+ T cells expressed as a percentage of total immune cells (CD45+). Each value is the average of n=4 mice per group. Treatment with all variant CD80-Fc fusion proteins led to increase in CD8+ TILs in various tumor models.

Data set [2] in a line: AC-SINS self-interaction assay. The data set is classed as physicochemical. How it is done: Variant CD80-Fc fusion proteins were assessed by measuring non-specific binding using a DNA- and insulin-binding ELISA (Avery et al., MAbs. 2018 February/March; 10(2): 244-255) and for self-interaction in an AC-SINS assay (affinity-capture self-interaction nanoparticle spectroscopy; Liu et al., 2014, mAbs 6:483-92). DNA- and insulin-binding scores were calculated as the signal ratio of the ELISA signal of the CD80-Fc fusion protein at 10 μg/ml to the ELISA signal in the absence of the Fc-fusion protein (buffer only). For the AC-SINS assay, proteins are captured by anti-human Fc antibodies coated on gold nanoparticles. […] The score ranges obtained from these in vitro assays correlate well with in vivo clearance using huFcRn transgenic (Tg32) mouse. Therapeutic proteins with high scores are at high risk for rapid clearance and unfavorable PK and therapeutics that score low are at low risk and favorable PK.

The nature of data set [3]: Thermal forced aggregation (SEC). Format: physicochemical. The note with it: 24 hours, PBS. How it is done:
To assess the aggregation propensity of variant CD80-Fc fusion proteins, 1 mg/ml of CD80-Fc fusion protein was incubated in PBS at increasing temperatures for 24 hours. The samples were analyzed by SEC on an Agilent 1100 (Agilent Technologies, Germany) HPLC system using a YMC-Pack Diol-200 (YMC, Germany) analytical size exclusion chromatography column and PBS supplemented to 400 mM NaCl as running buffer. % aggregation was calculated from the loss of intact peak area. […] ND=Not Determined.

Data set [4] in a line: Viscosity (Anton Paar rheometer). Format: physicochemical. The note with it: 20 mM histidine, 8.5% sucrose, pH 5.8. How it is done: The viscosity of CD80-Fc fusion proteins was assessed at various concentrations. Lower viscosity is desired for subcutaneous administration, and providing optimal syringeability and minimal pain to patients. Viscosity was measured using an Anton Paar rheometer and a CP-25 measuring system at 150 rpm. The sample comprised CD80-Fc fusion proteins in 20 mM histidine and 8.5% sucrose at pH 5.8.

As for “CD80-D90Q-Fc: variant CD80 ECD (D90Q) fused to human IgG1 Fc”, the “Number of tumor-free mice” value in data set [1] (0.3 mg/kg) is 4/10; in data set [1] (1 mg/kg), 4/10; in data set [1] (3 mg/kg), 8/10. Moreover, the “Day 18 tumor volume” value was 248.2 ± 126.1 mm^3 in data set [1] (0.3 mg/kg IV, Day 0 and 3); 157.6 ± 64.2 mm^3 in data set [1] (1 mg/kg IV, Day 0 and 3); 72.0 ± 41.6 mm^3 in data set [1] (3 mg/kg IV, Day 0, 3 and 6). In addition, the “% tumor growth inhibition” value in data set [1] (0.3 mg/kg) is 81.4%; in data set [1] (1 mg/kg), 89.6%; in data set [1] (3 mg/kg) it was 97.1%. For the same substance, the “# IFNγ-producing spots (splenic tumor-reactive T cells)” value (“# IFNγ-producing spots” below) in data set [1] (3 mg/kg) is given as 334.75. The “CD8^+ T cell infiltrates (% CD45)” value in data set [1] (3 mg/kg) was determined as 24.2 % CD45. Moreover, the “AC-SINS Score” value in data set [2] (Table 6) turned out to be 0. In addition, the “% aggregation” value is reported as 81.6% in data set [3] (Table 11, 40° C.); 89.5% in data set [3] (Table 11, 45.3° C.); 89.5% in data set [3] (Table 11, 49.4° C.).
Turning to “CD80-K89D-D90K-T28V-T57V-Fc: non-cysteine stabilized variant CD80-Fc fusion protein (K89D, D90K, T28V, T57V)”, the “AC-SINS Score” value in data set [2] (Table 7) is −1. Also, the results for the Viscosity in data set [4] (92.7 mg/ml) and in data set [4] (119 mg/ml) were 12.1 cP and 27.8 cP, respectively. Also, the “% aggregation” value is 0.6% in data set [3] (Table 12, 40° C.); 6.0% in data set [3] (Table 12, 45.3° C.); 62.8% in data set [3] (Table 12, 49.4° C.); 72.5% in data set [3] (Table 12, 54.9° C.).
Consider “CD80-K89Q-D90Q-E23C-A26C-Fc: disulfide stabilized variant CD80-Fc fusion protein (K89Q, D90Q, E23C, A26C)”, for which the “AC-SINS Score” value in data set [2] (Table 6) is reported as −1. Further, the Viscosity in data set [4] (107.0 mg/ml) was determined as 9.878 cP; in data set [4] (148.0 mg/ml), 30.16 cP. In addition, the “% aggregation” value amounted to 3.2% in data set [3] (Table 11, 54.9° C.); 22.8% in data set [3] (Table 11, 59.1° C.); 36.2% in data set [3] (Table 11, 64° C.); 0.6% in data set [3] (Table 12, 40° C.); 2.9% in data set [3] (Table 12, 45.3° C.); 0.5% in data set [3] (Table 12, 49.4° C.). In addition, the “% aggregation” value in data set [3] (Table 12, 54.9° C.) came out at 6.7%; in data set [3] (Table 12, 59.1° C.), 55.9%; in data set [3] (Table 12, 64° C.) it was 68.8%.
For “CD80-K89Q-D90Q-Fc: variant CD80 ECD (K89Q, D90Q) fused to human IgG1 Fc”, the “Number of tumor-free mice” value in data set [1] (0.3 mg/kg) is listed as 2/10; in data set [1] (1 mg/kg), 3/10; in data set [1] (3 mg/kg) it was 8/10. The “Day 18 tumor volume” value is recorded as 743.2 ± 159.5 mm^3 in data set [1] (0.3 mg/kg IV, Day 0 and 3); 192.6 ± 89.3 mm^3 in data set [1] (1 mg/kg IV, Day 0 and 3); 43.2 ± 21.8 mm^3 in data set [1] (3 mg/kg IV, Day 0, 3 and 6). Further, the “% tumor growth inhibition” value is given as 37.4% in data set [1] (0.3 mg/kg), 86.1% in data set [1] (1 mg/kg) and 99.8% in data set [1] (3 mg/kg). In addition, the “# IFNγ-producing spots” value in data set [1] (3 mg/kg) came to 152.17. Moreover, the “CD8^+ T cell infiltrates (% CD45)” value in data set [1] (3 mg/kg) worked out at 36.7 % CD45. The “AC-SINS Score” value in data set [2] (Table 6) amounted to 0. In addition, the values for the Viscosity in data set [4] (93.5 mg/ml) and in data set [4] (120.6 mg/ml) were 32.8 cP and 115.8 cP, respectively. The “% aggregation” value in data set [3] (Table 11, 40° C.) turned out to be 69.9%; in data set [3] (Table 11, 45.3° C.) it was 77.7%; in data set [3] (Table 11, 49.4° C.), 78.0%.
For “CD80-WT-Fc: wild-type human CD80 extracellular domain fused to human IgG1 Fc (C220S) [reference compound]”, the “Number of tumor-free mice” value in data set [1] (0.3 mg/kg) was 5/10; in data set [1] (1 mg/kg), 5/10; in data set [1] (3 mg/kg), 6/7. The “Day 18 tumor volume” value was determined as 199.0 ± 114.0 mm^3 in data set [1] (0.3 mg/kg IV, Day 0 and 3); 79.6 ± 25.5 mm^3 in data set [1] (1 mg/kg IV, Day 0 and 3); 73.0 ± 69.0 mm^3 in data set [1] (3 mg/kg IV, Day 0, 3 and 6). In addition, the “% tumor growth inhibition” value is on record as 85.6% in data set [1] (0.3 mg/kg), 96.2% in data set [1] (1 mg/kg) and 93.7% in data set [1] (3 mg/kg). Further, the results for the “# IFNγ-producing spots” value in data set [1] (0.3 mg/kg), in data set [1] (1 mg/kg) and in data set [1] (3 mg/kg) were 373.67, 271.08 and 288.5, respectively. For the same substance, the “CD8^+ T cell infiltrates (% CD45)” value in data set [1] (3 mg/kg) came out at 38.6 % CD45. For the same substance, the “AC-SINS Score” value in data set [2] (Table 6) and in data set [2] (Table 7) was 0 in each case. Also, the Viscosity in data set [4] (101.65 mg/ml) is 35.7 cP; in data set [4] (132.25 mg/ml), 158.8 cP. The “% aggregation” value stood at 18.0% in data set [3] (Table 11, 40° C.); 45.4% in data set [3] (Table 11, 45.3° C.); 50.8% in data set [3] (Table 11, 49.4° C.); 0.6% in data set [3] (Table 12, 40° C.); 64.9% in data set [3] (Table 12, 45.3° C.); 83.4% in data set [3] (Table 12, 49.4° C.).
